Reference: US20080213909A1, “PHARMACEUTICAL PACKAGING ASSAY” (priority 2006, published 2008)

Columns and labels:
[1] = Direct vial assay: adsorption of Cy3-labeled fibrinogen to coated Type 1 glass surfaces (fluorescence); type: physicochemical; settings: 5 μg/mL in 50 mM phosphate buffer pH 7, 4° C., 72 hours; four surfaces (FIG. 3)
Description: (§1) One aspect of the invention is an assay method for the determination of drug adsorption to commercially available pharmaceutical packaging surfaces and test surfaces under development. Pharmaceutical packaging surface materials include glass, polymers (polyethylene, polypropylene, polycarbonate, polyterphalate, cylic olefin copolymer, etc.), elastomers (rubbers, etc.), metals and alloys for vials, syringes, ampoules, cartridges, stoppers, etc. and components thereof. The assay consists of the following steps: • 1) Drug of interest is labeled with a fluorescent chemical group and degree of incorporation of dye is quantified. • 2) Calibration curves of various concentrations of the fluorescently labeled biomolecules are generated. • 3) Fluorescently labeled drug solution is exposed to the pharmaceutical packaging surface of interest for a length of time ranging from minutes to years. • 4) Fluorescently labeled drug solution is removed from pharmaceutical packaging surface of interest. This solution can be analyzed to determine the amount of drugs remaining in the solution. […] Aliquots of the solution, or aliquots of the solution first concentrated, are then applied to a sample holding surface for determination of biomolecular adsorption via fluorescence measurements. […]

[2] = supplier material data; cited from earlier work
[3] = Direct vial assay: adsorption of labeled insulin to various coated surfaces (fluorescence); type: physicochemical; settings: 10 μg/mL in 50 mM phosphate buffer pH 7, 4° C., 72 hours; nine surfaces (FIG. 6)
Description: as §1

Substance	protein adsorption to sample surfaces [1]	pI [2]	protein adsorption to sample surfaces, normalized to Type 1 vial [3]
fibrinogen	quantifiable difference in protein adsorption between various sample surfaces	5.4	
insulin: Porcine insulin from Sigma (15523), test biomolecule		7.0	quantifiable difference in protein adsorption between various sample surfaces
